Results taken from patent US20110059097A1 (UNIVERSITY HEALTH NETWORK, published 2011).

Target: T1, murine MFAP4 (microfibrillar-associated protein-4) on mouse DNT cells (murine, UniProt Q9D1H9 23-257)
T1 sequence: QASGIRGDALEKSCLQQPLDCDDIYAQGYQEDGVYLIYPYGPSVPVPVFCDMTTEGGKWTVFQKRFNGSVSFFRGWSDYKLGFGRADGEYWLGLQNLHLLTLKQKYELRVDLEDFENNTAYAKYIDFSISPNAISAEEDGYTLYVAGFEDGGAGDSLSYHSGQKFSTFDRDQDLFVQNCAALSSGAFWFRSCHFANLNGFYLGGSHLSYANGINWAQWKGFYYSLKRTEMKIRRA
Experiment: flow cytometry on mouse DNT cell clones (target later identified as MFAP4)

B1: G1 monoclonal antibody (antibody, V domains shown)
VH: EVKLVESGGGLVQPGRSLKLSCAASGFPFSNYGMAWVRQAPTKGLAWVATISYDGRSTYYRDSVKGRFTISRNNAKSTLYLQMDSLRSEDTATYYCVRHELPEDHWGQGVMVTVSS
VL: DIVMTQSPFSLAVSEGEMVTINCKSGQSLLSSGNQKNYLAWYQQKPGQSPKLLIYYSSTRQSGVPDRFIGSGSGTDFTLTISDVQAEDLADYYCLQHYSSPFTFGSGTKLEIK
notes: Hybridoma monoclonal antibody raised against cell surface molecules of tumor-reactive mouse DNT cells; also called G1 mAb; mAb (clone: G1)
  binding result: binds
